Experimental data published in patent US9340596B2, “Fusion protein comprising tumor necrosis factor related apoptosis inducing ligand and integrin ligand and use thereof” (NANJING UNIVERSITY, priority 2007, dated 2016).

Columns and labels:
[1] = test system: human foreskin microvascular endothelial cells; test: Cell adhesion assay of human foreskin microvascular endothelial cells on protein-coated wells; format: cell-based; details: free protein added to plates coated with TRAIL variant protein
Procedure: The TRAIL and its variant protein are coated on a 96-well PVC plate overnight at 4° C. The coated 96-well plate was rinsed with 0.9% physiological saline, and then blocked for 1 h at 1640 culture medium containing 2% bovine serum albumin, and then rinsed again. After the human foreskin microvascular endothelial cells were digested, washed three times with phosphate buffer and re-suspended into the complete RPMI1640 medium, it was then added to the 96-well plate coated with TRAIL and its variant (40,000 cell per well). After the cells were incubated for 1.5 hours in an incubator containing 5% carbon dioxide, they were washed three times with physiological saline to remove the non-adherent cells. The adherent cells were fixed for 30 min with phosphate buffer solution (pH 7.3) containing 4% formalin and 2% sucrose, and then stained with 0.5% crystal violet. The fixed stained cells were rinsed several times, then dissolved with […] DMSO to test the absorbance values at 540 nm. All the tests should be carried out at least three times independently.

[2] = test system: COLO-205 colon cancer cells; test: Cell apoptosis, Annexin V and PI double staining, COLO-205; format: cell-based; details: COLO-205 cells pre-incubated with RGD-L-TRAIL (C230G), then induced with RGD-L-TRAIL
Procedure: After the cells treated with TRAIL and its variant were digested with trypsin, they were removed from the cultivation plate, washed twice with phosphate buffer solution, and centrifuged for 5 min at 300 g centrifugal force. The supernatants were removed, and the cells were re-suspended in 100 ul of binding buffer solution. Then, Annexin V-FITC (BD Pharmgen) was added until a final concentration of 2 μg/ml was achieved, followed by incubation at room temperature. After 10 min, 400 ul of binding buffer was added, and the cells were transferred to a flow analysis tube. 1 μg of […] (Sigma Corporation) was added to each tube. The cells were analyzed with a flow cytometer within 30 min. At least three separate tests should be carried out for each cell line.

B1: RGD-L-TRAIL (C230G): TRAIL variant fused with αVβ3 and αVβ5 integrin ligands with a mutation at TRAIL's activity center causing loss of biological activity (protein)
chain: ACDCRGDCFCGGGGGVRERGPQRVAAHITGTRGRSNTLSSPNSKNEKALGRKINSWESSRSGHSFLSNLHLRNGELVIHEKGFYYIYSQTYFRFQEEIKENTKNDKQMVQYIYKYTSYPDPILLMKSARNSGWSKDAEYGLYSIYQGGIFELKENDRIFVSVTNEHLIDMDHEASFFGAFLVG
reduction by free protein of endothelial cells adhered to microplates coated with RGD-L-TRAIL (competitive test) [1]: significantly reduce
effect of pre-incubation with the competitive inhibitor on RGD-L-TRAIL-induced apoptosis activity [2]: declined significantly
